Measurements from the Immune Epitope Database (IEDB).

Tests used:
HLA-B*54:01 = assay: IEDB peptide-MHC binding, purified MHC/competitive/radioactivity; filed as Kd, often an IC50 or EC50 that approximates it; ≥ and ≤ were set here for values at or beyond the usual limits of such assays
HLA-B*53:01 = assay: as above
HLA-B*07:02 [1] = assay: as above
HLA-B*35:01 = assay: as above
HLA-B*51:01 [2] = assay: as above
HLA-B*58:01 [3] = assay: as above
HLA-B*57:01 [4] = assay: as above
HLA-A*30:01 = assay: as above; settings: source organism: Dengue virus 4 Philippines/H241/1956
HLA-A*31:01 [5] = assay: as above; settings: source organism: Vaccinia virus WR
HLA-A*02:02 = assay: as above; settings: source organism: Vaccinia virus WR
HLA-A*33:01 = assay: as above; settings: source organism: Vaccinia virus WR
HLA-A*11:01 [6] = assay: as above; settings: source organism: Vaccinia virus WR
HLA-A*02:03 [7] = assay: as above; settings: source organism: Vaccinia virus WR
HLA-A*02:01 [8] = assay: as above; settings: source organism: Vaccinia virus WR
HLA-A*68:01 = assay: as above; settings: source organism: Vaccinia virus WR
HLA-A*03:01 [9] = assay: as above; settings: source organism: Vaccinia virus WR
HLA-A*68:02 = assay: as above; settings: source organism: Vaccinia virus WR
HLA-A*02:06 = assay: as above; settings: source organism: Vaccinia virus WR
HLA-A*31:01 [10] = assay: IEDB peptide-MHC binding, purified MHC/direct/fluorescence; filed as Kd, often an IC50 or EC50 that approximates it; ≥ and ≤ were set here for values at or beyond the usual limits of such assays; settings: source organism: Ebola virus - Gabon (1994-1997)
HLA-A*02:16 = assay: as above; settings: source organism: Zaire ebolavirus
HLA-B*58:01 [11] = assay: as above; settings: source organism: Ebola virus - Gabon (1994-1997)
HLA-B*48:01 = assay: as above; settings: source organism: Ebola virus - Gabon (1994-1997)
HLA-B*40:01 = assay: as above; settings: source organism: Ebola virus - Gabon (1994-1997)
HLA-A*02:19 = assay: as above; settings: source organism: Zaire ebolavirus
HLA-B*46:01 = assay: as above; settings: source organism: Ebola virus - Gabon (1994-1997)
HLA-B*27:05 = assay: as above; settings: source organism: Ebola virus - Gabon (1994-1997)
HLA-A*11:01 [12] = assay: as above; settings: source organism: Ebola virus - Gabon (1994-1997)
HLA-B*15:01 = assay: as above; settings: source organism: Ebola virus - Gabon (1994-1997)
HLA-A*02:03 [13] = assay: as above; settings: source organism: Zaire ebolavirus
HLA-B*44:02 = assay: as above; settings: source organism: Ebola virus - Gabon (1994-1997)
HLA-A*03:01 [14] = assay: as above; settings: source organism: Ebola virus - Gabon (1994-1997)
HLA-B*07:02 [15] = assay: as above; settings: source organism: Ebola virus - Gabon (1994-1997)
HLA-A*02:11 = assay: as above; settings: source organism: Zaire ebolavirus
HLA-A*01:01 = assay: as above; settings: source organism: Ebola virus - Gabon (1994-1997)
HLA-A*02:12 = assay: as above; settings: source organism: Zaire ebolavirus
HLA-B*57:01 [16] = assay: as above; settings: source organism: Ebola virus - Gabon (1994-1997)
HLA-B*39:01 = assay: as above; settings: source organism: Ebola virus - Gabon (1994-1997)
HLA-B*18:01 = assay: as above; settings: source organism: Ebola virus - Gabon (1994-1997)
HLA-A*69:01 = assay: IEDB peptide-MHC binding, purified MHC/competitive/fluorescence; filed as Kd, often an IC50 or EC50 that approximates it; ≥ and ≤ were set here for values at or beyond the usual limits of such assays; settings: source organism: Zaire ebolavirus
HLA-A*02:01 [17] = assay: as above; settings: source organism: Zaire ebolavirus
HLA-B*15:17 = assay: as above; settings: source organism: Zaire ebolavirus
HLA-B*27:03 = assay: as above; settings: source organism: Zaire ebolavirus
HLA-B*51:01 [18] = assay: as above; settings: source organism: Zaire ebolavirus
HLA-A*26:01 = assay: as above; settings: source organism: Zaire ebolavirus
[19] = source organism: SARS coronavirus Tor2
[20] = source organism: Dengue virus 1 Brazil/97-11/1997
[21] = source organism: Vaccinia virus WR
[22] = source organism: Dengue virus 2 Peru/IQT2913/1996
[23] = source organism: Dengue virus 4 Philippines/H241/1956
[24] = source organism: Dengue virus 1 Singapore/S275/1990
[25] = source organism: Dengue virus 3 Martinique/1243/1999
[26] = source organism: Lymphocytic choriomeningitis virus (strain Armstrong)

RPIFEWIEA
Kd (HLA-B*54:01; [19]): 100 nM
Kd (HLA-B*53:01; [19]): 234 nM
Kd (HLA-B*07:02 [1]; [19]): 378 nM
Kd (HLA-B*35:01; [19]): 296 nM
Kd (HLA-B*51:01 [2]; [19]): 416 nM

VASVELPNSL
Kd (HLA-B*58:01 [3]; [20]): 149 nM
Kd (HLA-B*57:01 [4]; [20]): 4530 nM

KPYTAGNKV
Kd (HLA-B*54:01; [21]): 29.5 nM
Kd (HLA-B*53:01; [21]): ≥ 78200 nM
Kd (HLA-B*07:02 [1]; [21]): 36.6 nM
Kd (HLA-B*35:01; [21]): ≥ 77400 nM
Kd (HLA-B*51:01 [2]; [21]): 10.3 nM

ESWEEIPYLG
Kd (HLA-B*58:01 [3]; [22]): 90.3 nM
Kd (HLA-B*57:01 [4]; [22]): 78.3 nM

LPFYETLPEL
Kd (HLA-B*54:01; [21]): 29.7 nM
Kd (HLA-B*53:01; [21]): 57 nM
Kd (HLA-B*07:02 [1]; [21]): 79.8 nM
Kd (HLA-B*35:01; [21]): 63.1 nM
Kd (HLA-B*51:01 [2]; [21]): 55.1 nM

KASQEGPLPE
Kd (HLA-B*58:01 [3]; [20]): 669 nM
Kd (HLA-B*57:01 [4]; [20]): 894 nM

GASKRSWPLN
Kd (HLA-B*58:01 [3]; [23]): 763 nM
Kd (HLA-A*30:01): 257 nM
Kd (HLA-B*57:01 [4]; [23]): 106 nM

VLPHLCLDYK
Kd (HLA-A*31:01 [5]): 1760 nM
Kd (HLA-B*54:01; [21]): ≥ 69900 nM
Kd (HLA-A*02:02): ≥ 70000 nM
Kd (HLA-B*53:01; [21]): ≥ 69900 nM
Kd (HLA-A*33:01): 19300 nM
Kd (HLA-A*11:01 [6]): 194 nM
Kd (HLA-A*02:03 [7]): ≥ 70400 nM
Kd (HLA-A*02:01 [8]): ≥ 69400 nM
Kd (HLA-A*68:01): 1320 nM
Kd (HLA-A*03:01 [9]): 26.1 nM
Kd (HLA-A*68:02): ≥ 69800 nM
Kd (HLA-B*07:02 [1]; [21]): ≥ 69600 nM
Kd (HLA-A*02:06): ≥ 20200 nM
Kd (HLA-B*35:01; [21]): ≥ 69900 nM
Kd (HLA-B*51:01 [2]; [21]): ≥ 69600 nM

ASSVLLWMAS
Kd (HLA-B*58:01 [3]; [24]): 690 nM
Kd (HLA-B*57:01 [4]; [24]): 15100 nM

YFTFDLTAL
Kd (HLA-A*31:01 [10]): ≥ 20000 nM
Kd (HLA-A*02:16): ≥ 20000 nM
Kd (HLA-B*58:01 [11]): ≥ 20000 nM
Kd (HLA-B*48:01): ≥ 20000 nM
Kd (HLA-B*40:01): ≥ 20000 nM
Kd (HLA-A*02:19): ≥ 20000 nM
Kd (HLA-B*46:01): ≥ 20000 nM
Kd (HLA-B*27:05): ≥ 20000 nM
Kd (HLA-A*11:01 [12]): ≥ 20000 nM
Kd (HLA-B*15:01): ≥ 20000 nM
Kd (HLA-A*02:03 [13]): ≥ 20000 nM
Kd (HLA-B*44:02): ≥ 20000 nM
Kd (HLA-A*03:01 [14]): ≥ 20000 nM
Kd (HLA-B*07:02 [15]): ≥ 20000 nM
Kd (HLA-A*02:11): ≥ 20000 nM
Kd (HLA-A*01:01): ≥ 20000 nM
Kd (HLA-A*02:12): ≥ 20000 nM
Kd (HLA-B*57:01 [16]): ≥ 20000 nM
Kd (HLA-B*39:01): ≥ 20000 nM
Kd (HLA-B*18:01): ≥ 20000 nM
Kd (HLA-A*69:01): ≥ 20000 nM
Kd (HLA-A*02:01 [17]): ≥ 20000 nM
Kd (HLA-B*15:17): ≥ 20000 nM
Kd (HLA-B*27:03): ≥ 20000 nM
Kd (HLA-B*51:01 [18]): ≥ 20000 nM
Kd (HLA-A*26:01): ≥ 20000 nM

VPHSVFIASA
Kd (HLA-B*54:01; [21]): 0.286 nM
Kd (HLA-B*53:01; [21]): ≥ 69900 nM
Kd (HLA-B*07:02 [1]; [21]): 528 nM
Kd (HLA-B*35:01; [21]): 8490 nM
Kd (HLA-B*51:01 [2]; [21]): ≥ 69600 nM

SPETQQMII
Kd (HLA-B*54:01; [21]): 19500 nM
Kd (HLA-B*53:01; [21]): 11.4 nM
Kd (HLA-B*07:02 [1]; [21]): 408 nM
Kd (HLA-B*35:01; [21]): 845 nM
Kd (HLA-B*51:01 [2]; [21]): 105 nM

NPTKYIRWKL
Kd (HLA-B*54:01; [21]): 5880 nM
Kd (HLA-B*53:01; [21]): 2020 nM
Kd (HLA-B*07:02 [1]; [21]): 27 nM
Kd (HLA-B*35:01; [21]): 15000 nM
Kd (HLA-B*51:01 [2]; [21]): ≥ 59400 nM

VASVNMVSRL
Kd (HLA-B*58:01 [3]; [25]): 1050 nM
Kd (HLA-B*57:01 [4]; [25]): 2240 nM

MPSEDGAEAL
Kd (HLA-B*54:01; [26]): 2850 nM
Kd (HLA-B*53:01; [26]): 1730 nM
Kd (HLA-B*07:02 [1]; [26]): 1360 nM
Kd (HLA-B*35:01; [26]): 68.1 nM
Kd (HLA-B*51:01 [2]; [26]): ≥ 21500 nM
